# Measured values reported in doi:10.1101/190033 (bioRxiv, 2017).
# What was measured:
# [1] = target: the molecule itself; assay: GEMMA
# [2] = target: the molecule itself; assay: SEC
# [3] = target: the molecule itself; assay: crystal structure
# [4] = target: the molecule itself; assay: SEC; remark: listed apart in the source
protein,measurement,setting,value
"Leeuwenhoekiella blandensis class I ribonucleotide reductase radical-generating subunit NrdBi (NrdB), wild type (enzyme, Leeuwenhoekiella blandensis MED217, UniProt A3XHF9 1-427, looked up) MSSQEIKKIIKRDYSTAPFVLEKITNAIANAMAALGHGSEQDAKLISMQVYESLLNNKEQESEYIPTVEQVQDMVEDKLMSSEFHDVAKAYIIYRNKRALERKTNIFEKRINLKPYEYPELNEYVAAIRHSYWIHTEFNFTSDIQDFKTGLSEVERSAIKNTMLAISQIEVAVKTFWGDVHHRLPKPEIAAVGATFAESEVRHHDAYSHLLEILGLNEEFKELKKKPVIMKRVHYLETSLKHAKSDDDREYTESILLFALFIEHVSLFSQFLIIMAFNKHKNMLKGISNAVEATSKEEQIHGDFGVDIINIIKKENPEWFDEEHNNLIKEMCLNSFEAESKVVDWIFEKGELDFLPKAVINEFLKNRFNKSLEAIGLEKLFDIDEALLQETEWFDDEIIGTKHGDFFVKRSINYSKRTQSITSDDLF",stoichiometry N,[1],4
same,stoichiometry N,[2],2
"Leeuwenhoekiella blandensis NrdB, thrombin-cleaved (hexahistidine tag removed), used for crystallization (enzyme, Leeuwenhoekiella blandensis MED217) GSHMSSQEIKKIIKRDYSTAPFVLEKITNAIANAMAALGHGSEQDAKLISMQVYESLLNNKEQESEYIPTVEQVQDMVEDKLMSSEFHDVAKAYIIYRNKRALERKTNIFEKRINLKPYEYPELNEYVAAIRHSYWIHTEFNFTSDIQDFKTGLSEVERSAIKNTMLAISQIEVAVKTFWGDVHHRLPKPEIAAVGATFAESEVRHHDAYSHLLEILGLNEEFKELKKKPVIMKRVHYLETSLKHAKSDDDREYTESILLFALFIEHVSLFSQFLIIMAFNKHKNMLKGISNAVEATSKEEQIHGDFGVDIINIIKKENPEWFDEEHNNLIKEMCLNSFEAESKVVDWIFEKGELDFLPKAVINEFLKNRFNKSLEAIGLEKLFDIDEALLQETEWFDDEIIGTKHGDFFVKRSINYSKRTQSITSDDLF",stoichiometry N,[3],4
"Leeuwenhoekiella blandensis class I ribonucleotide reductase catalytic subunit NrdAi (NrdA) (enzyme, Leeuwenhoekiella blandensis MED217, UniProt A3XHF8 1-600, looked up) MRENTTKLENSTETNVQHTKDNDLLKARRDALQDATEKNTDEPSFDWLTEHSRSFLAAGYLSEGVSAEERIREIADRAEEILRMPGFSDKFYKYMGEGYFSLASPVWSNFGKKRGLPISCFGSHIDDDMGNILYTQSEVGMMSKLGGGTSGYFGKIRHRGAAVKNNGYASGAVHIMQLFDKMVDVVSQGSVRRGRFSPYLPISHPDIKEFLEIGTEGNSIQQLTHGVTVDSTWMQEMIDGDTDKREVWAKVLQRRGEMGYPYIFYTDNANNGKPDVYKDKGHDIYASNLCTEIMLPSSDEWSFVCVLSSINVLHYDKWKNTDAVETMVCFLDAVLTEFIDKLEEYRDSDNRDHRQTFMFMERAYNFAKSNRALGLGVLGWHSLLQSKRHAFDSQEAYDLNSEIFREIKQRSYKASEELAEKFGEPETLKGYGRRNATLNAIAPTTSSAFILGQVSQGIEPIWSNVYVKDIAKIKTTIKNPFLEELFEEKGMNTPEVWRSVRDNDGSVQHLEFLTEQEKDVFKTYAEIDQMAIIYQAANRQNHIDQGQSINLLVHPDMPIKEINKIHITAWKLGLKSLYYQHSMNAAQKFKQKKECVSCEA",stoichiometry N,[4],2
